The test deals with DR6 ECD-Halo (UniProt O75509). The test is described as follows: single-molecule dual-color photobleaching.
Sequence of DR6 ECD-Halo (O75509 42-349): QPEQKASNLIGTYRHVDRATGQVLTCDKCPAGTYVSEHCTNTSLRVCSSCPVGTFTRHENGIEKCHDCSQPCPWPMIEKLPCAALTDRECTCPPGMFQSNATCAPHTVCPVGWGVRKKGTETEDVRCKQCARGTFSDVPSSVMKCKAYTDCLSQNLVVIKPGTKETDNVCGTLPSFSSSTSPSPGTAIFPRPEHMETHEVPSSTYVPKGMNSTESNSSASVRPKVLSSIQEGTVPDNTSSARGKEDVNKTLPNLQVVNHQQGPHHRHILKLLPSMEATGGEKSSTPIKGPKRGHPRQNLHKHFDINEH

For orientation: stoichiometry N means the number of molecules, sites or subunits per partner or assembly. “RBP4-SNAP (from UniProt P02753 19-201) (ligand)”: the stoichiometry N was found to be 1.

Source of the values: publication doi:10.1101/2024.10.21.619555.
